According to US9611297 (THRASOS THERAPEUTICS, dated 2017):
Positions of bridges follow the written chain, without caps; N, C: chain ends. Non-standard residues stand in square brackets, D forms with d. No end group written: not given here.

Tests used:
human uromodulin [1] = molecular target: T1, human uromodulin (human, UniProt P07911 25-614); assay: competition ELISA; biotin-uromodulin + peptide on coated light chain BER (competitor)
Experimental: (§1) Enzyme-linked immunosorbant assays (ELISA) were performed on the disclosed peptides. Plates were coated with the following light chain clones overnight at 4° C.: 0.05 uM BER (subtype lambda, isolated from SP2/0 cells), 0.2 uM ROC (subtype kappa, isolated from CHO cells), and 0.3 uM BEN (subtype lambda, isolated from CHO cells). The plates were washed and treated with bovine serum albumin (BSA) overnight at 4° C. For peptide plates, 10 nM biotin-uromodulin was mixed with peptide overnight at 4° C.

human uromodulin [2] = molecular target: T1, human uromodulin; assay: competition ELISA; biotin-uromodulin + peptide on coated light chain ROC (competitor)
Experimental: as §1

B1: SEQ ID No. 47 (peptide)
peptide: [dK][dK]CQQS[dY]SIPYTC[dK][dK]
modifications: disulfide 3-13 (inferred)
notes: synthetic; disulfide bridge formed per general procedure; also called K*K*CQQSY*SIPYTCK*K*
Human uromodulin [1]
  IC50: 32.3 µM
Human uromodulin [2]
  IC50: 33.5 µM
